Measurements from IntAct's records for PubMed 20581830.

B1: Interferon regulatory factor 3 (Homo sapiens), Q14653 (parent)
chain: MGTPKPRILPWLVSQLDLGQLEGVAWVNKSRTRFRIPWKHGLRQDAQQEDFGIFQAWAEATGAYVPGRDKPDLPTWKRNFRSALNRKEGLRLAEDRSKDPHDPHKIYEFVNSGVGDFSQPDTSPDTNGGGSTSDTQEDILDELLGNMVLAPLPDPGPPSLAVAPEPCPQPLRSPSLDNPTPFPNLGPSENPLKRLLVPGEEWEFEVTAFYRGRQVFQQTISCPEGLRLVGSEVGDRTLPGWPVTLPDPGMSLTDRGVMSYVRHVLSCLGGGLALWRAGQWLWAQRLGHCHTYWAVSEELLPNSGHGPDGEVPKDKEGGVFDLGPFIVDLITFTEGSGRSPRYALWFCVGESWPQDQPWTKRLVMVKVVPTCLRALVEMARVGGASSLENTVDLHISNSHPLSLTSDQYKAYLQDLVEGMDFQGPGES

Variants of: B1
Conditions: with cbp_human CREBBP

| effect of a mutation on the interaction | Variant |
| --- | --- |
| increasing interaction strength | MGTPKPRILPWLVSQLDLGQLEGVAWVNKSRTRFRIPWKHGLRQDAQQEDFGIFQAWAEATGAYVPGRDKPDLPTWKRNFRSALNRKEGLRLAEDRSKDPHDPHKIYEFVNSGVGDFSQPDTSPDTNGGGSTSDTQEDILDELLGNMVLAPLPDPGPPSLAVAPEPCPQPLRSPSLDNPTPFPNLGPSENPLKRLLVPGEEWEFEVTAFYRGRQVFQQTISCPEGLRLVGSEVGDRTLPGWPVTLPDPGMSLTDRGVMSYVRHVLSCLGGGLALWRAGQWLWAQRLGHCHTYWAVSEELLPNSGHGPDGEVPKDKEGGVFDLGPFIVDLITFTEGSGRSPRYALWFCVGESWPQDQPWTKRLVMVKVVPTCLRALVEMARVGGASSLENTVDLHIDNDHPLDLDDDQYKAYLQDLVEGMDFQGPGES [S396D;S398D;S402D;T404D;S405D] |
